Assay results as given in CN107417789A (INST RES BIOMEDICINE, dated 2017).

Biological target: T1, X-31 (H3N2) 菠萝蛋白酶释放的HA (BHA) (influenza A virus X-31 (H3N2), UniProt P03437 17-344; P03437 346-520)
T1 construct: domain: 菠萝蛋白酶释放的HA (BHA)
Assay: complex formation and size exclusion chromatography

B1: FI6变体3 Fab片段 (Fab, V domains shown)
VH: QVQLVESGGGVVQPGRSLRLSCAASGFTFSTYAMHWVRQAPGKGLEWVAVISYDANYKYYADSVKGRFTISRDNSKNTLYLQMNSLRAEDTAVYYCAKDSQLRSLLYFEWLSQGYFDYWGQGTLVTVSS
VL: not shown
Does B1 bind?
Result: binds
